# Measured values: patent publication US20100125055A1 (Dana-Farber, published 2010)
# Where no end group is shown, it is not given here.
# B1: MUC1/CQC peptide (peptide)
# peptide: CQCRRKNYGQLDIFP
# modifications: cysteine pairing not given here; also: poly-D-Arg transduction domain, length and attachment end not given here
# notes: Synthetic peptide (MIT Biopolymer Laboratory); also called CQC long (15-mer); not shown: The poly-D-Arg cell transduction domain
# B2: His-tagged MUC1 cytoplasmic domain (other)
# chain: CQCRRKNYGQLDIFPARDTYHPMSEYPTYHTHGRYVPPSSTDRSPYEKVSAGNGGSSLSYTNPAVAATSANL
# notes: Purified recombinant protein; It forms oligomers; also called His-MUC1-CD; His-tagged MUC1-CD; not shown: His tag
# Legend:
# [1] = biological target: B2; experiment: BIAcore (SPR), His-MUC1-CD immobilized, peptide injected at 10 uM, 1:1 Langmuir fit
# Method: (§1) The N-terminal 15 amino acids (shaded sequence) MUC1/CQC and mutated MUC1/AQA peptides were synthesized with the poly-dArg transduction domain. (FIG. 1B) His-MUC1-CD (1.4 mg/ml) was immobilized on a sensor chip in a BIAcore. MUC1/CQC was injected over the chip at 10 μM. Raw binding data were analyzed by BIAevaluation software version 3.0 and fit to a 1:1 Languir binding model. (FIG. 1C) Purified His-MUC1-CD (1.5 mg/ml) was incubated with PBS, 200 μM MUC1/CQC or 200 μM MUC1/AQA for 1 h at room temperature. The proteins were separated in a non-reducing SDS-polyacrylamide gel and analyzed by immunoblotting with anti-MUC1-C. (FIG. 1D) 293 cells were transiently transfected to express an empty vector or GFP-MUC1-CD and Flag-MUC1-CD. At 48 h after transfection, the cells were treated with 5 μM MUC1/CQC or MUC1/AQA for 3 d. The cells were then harvested for immunoblotting with anti-MUC1-C (left panel). Whole cell lysates were also precipitated with anti-Flag and the precipitates were immunoblotted with the indicated antibodies (right panels).
# Effects of the MUC1/CQC peptide on MUC1 oligomer formation. The MUC1 cytoplasmic domain (MUC1-CD) contains a CQC motif that is necessary for the formation of oligomers and nuclear localization (Leng et al., 2007). […] Purified His-tagged MUC1-CD forms oligomers as detected by electrophoresis in polyacrylamide gels (FIG. 1C).
# [2] = biological target: the molecule itself; experiment: self-association of purified His-MUC1-CD (1.5 mg/ml); non-reducing SDS-polyacrylamide gel, immunoblot with anti-MUC1-C; incubated 1 h with PBS, 200 uM MUC1/CQC or 200 uM MUC1/AQA
# Method: as §1, with “Schematic representation of the MUC1-C subunit and the 72-amino acid sequence of MUC1-CD are shown. The N-terminal” for “The N-terminal”
Binder,Kd [1] [nM],binding result [2]
B1,30,–
B2,–,binds
